Experimental data from US20220204643A1 (published 2022).
Each block holds one binder with its values, some of them ahead of it.

Assays:
Assay in all cases: protein array
[1] = target: T1, leucine rich repeat containing 28, transcript variant 1 (human, UniProt Q86X40 1-367)
T1 construct: on protein array; also called LRRC28

[2] = target: T2, BAR/IMD domain containing adaptor protein 2, transcript variant 3 (human, UniProt Q9UQB8 1-511)
T2 construct: on protein array; also called BAIAP2
T2 sequence: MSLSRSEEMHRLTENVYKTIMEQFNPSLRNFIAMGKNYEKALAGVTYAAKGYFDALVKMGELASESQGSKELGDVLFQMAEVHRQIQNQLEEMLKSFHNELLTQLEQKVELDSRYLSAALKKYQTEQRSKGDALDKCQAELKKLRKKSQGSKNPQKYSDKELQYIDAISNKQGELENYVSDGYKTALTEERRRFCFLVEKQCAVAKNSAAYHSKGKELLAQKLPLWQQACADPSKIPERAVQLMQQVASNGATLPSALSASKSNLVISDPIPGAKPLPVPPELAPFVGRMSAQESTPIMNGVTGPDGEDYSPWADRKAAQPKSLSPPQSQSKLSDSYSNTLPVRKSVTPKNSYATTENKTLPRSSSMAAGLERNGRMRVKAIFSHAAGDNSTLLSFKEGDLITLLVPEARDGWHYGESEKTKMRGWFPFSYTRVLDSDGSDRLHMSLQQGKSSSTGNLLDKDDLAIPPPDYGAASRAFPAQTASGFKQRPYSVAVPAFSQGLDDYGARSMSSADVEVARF

[3] = target: T3, homeobox and leucine zipper encoding (human, UniProt Q8IX15 25-550)
T3 construct: on protein array; also called HOMEZ
T3 sequence: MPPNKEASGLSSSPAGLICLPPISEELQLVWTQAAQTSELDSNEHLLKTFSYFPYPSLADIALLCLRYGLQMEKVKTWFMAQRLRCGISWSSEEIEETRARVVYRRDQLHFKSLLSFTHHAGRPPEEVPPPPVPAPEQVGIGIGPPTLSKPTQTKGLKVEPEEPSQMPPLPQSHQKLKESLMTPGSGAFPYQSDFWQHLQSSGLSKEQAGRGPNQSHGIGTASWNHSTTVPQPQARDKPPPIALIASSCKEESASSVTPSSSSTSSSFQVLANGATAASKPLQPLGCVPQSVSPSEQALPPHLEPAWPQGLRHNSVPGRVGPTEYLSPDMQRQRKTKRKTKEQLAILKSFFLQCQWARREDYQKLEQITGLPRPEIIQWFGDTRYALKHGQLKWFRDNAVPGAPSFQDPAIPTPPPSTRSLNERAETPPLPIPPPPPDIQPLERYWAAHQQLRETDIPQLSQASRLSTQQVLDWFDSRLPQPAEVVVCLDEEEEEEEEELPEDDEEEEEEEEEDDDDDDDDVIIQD

[4] = target: T4, KH RNA binding domain containing, signal transduction associated 2, transcript variant 2 (human, UniProt Q5VWX1 1-349)
T4 construct: on protein array; also called KHDRBS2
T4 sequence: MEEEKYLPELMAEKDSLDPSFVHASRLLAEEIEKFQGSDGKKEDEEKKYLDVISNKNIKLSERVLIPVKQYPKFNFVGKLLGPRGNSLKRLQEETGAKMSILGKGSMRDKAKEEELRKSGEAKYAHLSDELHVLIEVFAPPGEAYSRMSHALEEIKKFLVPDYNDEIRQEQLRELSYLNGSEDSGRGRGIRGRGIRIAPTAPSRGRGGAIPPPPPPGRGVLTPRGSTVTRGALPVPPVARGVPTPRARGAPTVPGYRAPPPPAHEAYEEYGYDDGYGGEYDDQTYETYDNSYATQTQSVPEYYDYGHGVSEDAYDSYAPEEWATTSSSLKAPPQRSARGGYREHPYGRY

[5] = target: T5, growth factor receptor bound protein 2, transcript variant 1 (human, UniProt P62993 1-217)
T5 construct: on protein array; also called GRB2

[6] = target: T6, sorting nexin 33, transcript variant 1 (human, UniProt Q8WV41 1-574)
T6 construct: on protein array; also called SNX33
T6 sequence: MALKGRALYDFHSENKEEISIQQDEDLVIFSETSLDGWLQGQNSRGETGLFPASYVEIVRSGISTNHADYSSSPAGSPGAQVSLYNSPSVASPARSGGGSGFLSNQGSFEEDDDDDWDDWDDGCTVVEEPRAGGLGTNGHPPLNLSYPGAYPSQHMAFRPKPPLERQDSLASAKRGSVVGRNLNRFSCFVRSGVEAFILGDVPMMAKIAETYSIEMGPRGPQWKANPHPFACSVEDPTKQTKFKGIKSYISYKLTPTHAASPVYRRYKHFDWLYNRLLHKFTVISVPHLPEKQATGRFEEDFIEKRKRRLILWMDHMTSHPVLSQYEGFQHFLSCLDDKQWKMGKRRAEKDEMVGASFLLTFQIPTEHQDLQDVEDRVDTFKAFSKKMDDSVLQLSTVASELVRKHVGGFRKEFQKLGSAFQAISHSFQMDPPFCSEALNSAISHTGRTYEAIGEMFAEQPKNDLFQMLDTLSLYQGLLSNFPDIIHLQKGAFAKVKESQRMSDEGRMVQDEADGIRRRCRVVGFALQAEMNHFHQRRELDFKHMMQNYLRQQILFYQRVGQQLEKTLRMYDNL

[7] = target: T7, extended synaptotagmin 2 (human, UniProt A0FGR8 564-921)
T7 construct: on protein array; also called ESYT2_frag
T7 sequence: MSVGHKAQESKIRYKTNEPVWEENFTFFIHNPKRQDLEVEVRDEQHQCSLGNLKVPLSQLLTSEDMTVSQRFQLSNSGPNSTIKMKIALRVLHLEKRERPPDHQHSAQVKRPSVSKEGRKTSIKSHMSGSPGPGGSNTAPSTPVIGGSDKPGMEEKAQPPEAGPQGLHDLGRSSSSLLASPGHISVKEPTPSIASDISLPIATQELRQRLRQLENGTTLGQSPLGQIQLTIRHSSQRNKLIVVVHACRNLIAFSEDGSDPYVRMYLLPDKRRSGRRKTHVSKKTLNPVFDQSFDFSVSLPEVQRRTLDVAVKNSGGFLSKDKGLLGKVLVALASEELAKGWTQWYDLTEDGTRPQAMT

T1 sequence (Q86X40 whole entry, change not shown): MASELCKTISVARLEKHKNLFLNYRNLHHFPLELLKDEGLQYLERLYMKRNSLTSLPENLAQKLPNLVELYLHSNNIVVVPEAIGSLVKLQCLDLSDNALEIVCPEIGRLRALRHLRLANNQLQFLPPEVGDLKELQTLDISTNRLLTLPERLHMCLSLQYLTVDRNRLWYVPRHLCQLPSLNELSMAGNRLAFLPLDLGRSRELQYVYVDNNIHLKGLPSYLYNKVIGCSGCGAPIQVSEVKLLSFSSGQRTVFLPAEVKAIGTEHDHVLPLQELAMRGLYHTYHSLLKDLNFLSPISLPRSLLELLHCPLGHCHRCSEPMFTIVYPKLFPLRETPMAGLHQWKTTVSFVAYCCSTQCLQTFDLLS

binding result [1]: binds
B1: TESO1003 (antibody, V domains shown)
VH: QVQLVESGGGVVQPGRSLRLSCAASGFTFSNYDMHWVRQAPGKGLEWVTVVSYDGTNKYYAESVQGRFTISRDNSKNTLYLQMNSLRTEDTAVYYCAKEGGWGNTVTTSYYYYGMDVWGQGTTVTVSS
VL: QIVLTQSPATLSLSPGERATLSCRASQSVSNYLAWYQQKPGQAPRLLIYDASNRATGIPARFSGSGSGTDFTLTISSLEPEDFAVYYCQQRSNWPPYTFGQGTKLDIKR
notes: VH/VL only

binding result [2]: binds
binding result [3]: binds
B2: TCOL1006 (antibody, V domains shown)
VH: EVQLVESGGGLVQPGGSLRLSCAASGFPPRSFAMSWVRQAPGKGLEWVSSISGLGNSIYYAESVKGRFITSRDNSKSTVFLLMNSLRAEDTAVYYCAKSAFGGVPDGFDIWGQGTMVTVSS
VL: QSVVTQPPSASGPPGQTVTISCSGGRSNVASHAVHWYQHLPGTAPKLLIYNDHQRPSGVPDRFSGSKSGPSASLAISGLRSEDEADYYCATWDDSLGGRVVFGGGTKLTVLG
notes: VH/VL only

binding result [4]: binds
B3: TCHO1001 (antibody, V domains shown)
VH: PVHLVQSGAEVKKPGSSVKVSCKLSGGIFSYFAIIWVRQAPGQGLEWMGTIIPIFGTSNYAEKFQDRVAIVADEATSTVYMEVNSLRSEDTAIYFCARDSEVEKSDGYMASTAEYFQLWGQGTLVTVSS
VL: not shown
notes: VH/VL only

binding result [5]: binds
B4: TCOL1009 (antibody, V domains shown)
VH: PVQLVQSGAEVKKPGASVKVSCKASGDTFPNYVISWVRQAPGQGLEWVGCINTNNGKTNYVQKLQGRVILTTDTSTNTANMELRSLRFDDTAVYYCARERGQVRSYGMDVWGQGTAVTVSS
VL: PYELTQPPSVSVSPGQTANITCSGDKLGDICVCWYQQKPGQSPVLVIYQHNKRPSGIPERFSGSNSGNTATLTISATQATDEAIYYCQSWDSSSVLFGGGTKLTVLG
notes: VH/VL only

binding result [6]: binds
B5: TCER1006 (antibody, V domains shown)
VH: EVQLVQSGAEVKKPGESLKISCKGSGYSFTSFWIGWVRQMPGKGLEWMGIIFPADSDTRYSPSFQGQVIISVDKSISTAYLQWSSLKASDTAMYYCARRGVSGGSAWTYYNFFDPWGQGTLVTVAS
VL: PSVLTQPPSVSAAPGQKVTISCSGSSSNIDNNYVSWYQQLPGTAPKLLIYENNKRASGIPDRFSGSKSGTSATLGITGLQTGDEADYYCGTWDSSLSPGGVFGGGTKLTVLG
notes: VH/VL only

binding result [7]: binds
B6: TCOL1004 (antibody, V domains shown)
VH: QVQLQESGPGLVKPSQTLSLTCIVSGGSISGDKNFWSWVRQHPEKGLEWLGYISYNGNTYYNPSLISRIIISLDTPKNLFSLRLSSVTVADTAIYYCAREVDIRGDSDAFDIWGRGTVVTVSS
VL: EIVMTQSPATLSVSPGERATLSCRASQSVSTNLAWYQQRPGQAPRLFIFGASTRATGIPARFSGSGSGTEFTLTISSPQPEDSAVYYCQQYTTRPLTFGGGTKVEIKR
notes: VH/VL only
